According to US20080286284A1:
Where “and” joins values, the source holds several entries; their conditions need not be identical. Identical values can stand only once.

Legend:
[1] = target: recombinant soluble PSMA (rsPSMA) (human) (UniProt Q04609); experiment: Biacore, rsPSMA
[2] = target: prostate specific membrane antigen (PSMA), full-length human (human) (UniProt Q04609); experiment: fraction of radiolabeled mAb bound, PSMA-3T3 cells
[3] = target: prostate specific membrane antigen (PSMA), full-length human (human) (UniProt Q04609); experiment: average over PSMA-expressing cells
[4] = target: prostate specific membrane antigen (PSMA), full-length human (human) (UniProt Q04609); experiment: cell-based or functional assay

Chain of prostate specific membrane antigen (PSMA), full-length human (human) (Q04609 whole entry): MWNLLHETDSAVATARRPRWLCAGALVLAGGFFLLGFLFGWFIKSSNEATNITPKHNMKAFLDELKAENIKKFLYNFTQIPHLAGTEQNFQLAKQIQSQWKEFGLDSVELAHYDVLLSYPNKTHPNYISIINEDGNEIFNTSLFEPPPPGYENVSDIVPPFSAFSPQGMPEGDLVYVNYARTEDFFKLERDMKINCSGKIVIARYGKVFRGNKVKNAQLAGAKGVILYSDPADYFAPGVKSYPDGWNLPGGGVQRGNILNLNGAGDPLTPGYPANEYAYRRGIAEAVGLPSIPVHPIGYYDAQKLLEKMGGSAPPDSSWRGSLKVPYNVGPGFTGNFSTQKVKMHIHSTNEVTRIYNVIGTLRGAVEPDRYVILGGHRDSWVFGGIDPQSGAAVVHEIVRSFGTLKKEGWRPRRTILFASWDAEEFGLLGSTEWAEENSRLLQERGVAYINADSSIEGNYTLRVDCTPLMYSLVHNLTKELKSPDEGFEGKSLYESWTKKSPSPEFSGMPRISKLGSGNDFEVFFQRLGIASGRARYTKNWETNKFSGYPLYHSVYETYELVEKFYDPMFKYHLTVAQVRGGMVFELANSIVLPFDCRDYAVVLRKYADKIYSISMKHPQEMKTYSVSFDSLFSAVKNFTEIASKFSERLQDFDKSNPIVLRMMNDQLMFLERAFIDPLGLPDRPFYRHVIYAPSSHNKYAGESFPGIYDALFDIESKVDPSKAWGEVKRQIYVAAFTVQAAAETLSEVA
Chain of recombinant soluble PSMA (rsPSMA) (human) (Q04609 44-750): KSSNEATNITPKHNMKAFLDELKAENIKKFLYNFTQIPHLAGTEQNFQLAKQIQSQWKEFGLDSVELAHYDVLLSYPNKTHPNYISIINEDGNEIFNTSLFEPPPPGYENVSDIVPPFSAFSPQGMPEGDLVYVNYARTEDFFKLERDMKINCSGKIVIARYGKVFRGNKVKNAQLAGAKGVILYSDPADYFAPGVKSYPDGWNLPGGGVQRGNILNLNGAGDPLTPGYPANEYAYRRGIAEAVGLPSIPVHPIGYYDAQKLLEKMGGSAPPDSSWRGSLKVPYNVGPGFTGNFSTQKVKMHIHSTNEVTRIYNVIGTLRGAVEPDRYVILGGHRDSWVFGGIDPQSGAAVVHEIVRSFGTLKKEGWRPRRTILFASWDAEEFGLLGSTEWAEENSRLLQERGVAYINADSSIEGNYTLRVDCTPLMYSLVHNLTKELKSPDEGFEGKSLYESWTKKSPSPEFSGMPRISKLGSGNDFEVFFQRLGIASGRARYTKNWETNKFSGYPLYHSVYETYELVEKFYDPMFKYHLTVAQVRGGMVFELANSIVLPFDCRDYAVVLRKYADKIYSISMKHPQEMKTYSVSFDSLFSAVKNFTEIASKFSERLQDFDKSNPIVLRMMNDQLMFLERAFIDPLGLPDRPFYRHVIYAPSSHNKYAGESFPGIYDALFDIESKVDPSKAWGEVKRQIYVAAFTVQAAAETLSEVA

Control (Table 6, Biacore) (antibody)
Kd [1]: 0.634 nM

^111In radiolabeled CHX-A″-DTPA mJ591 (antibody)
Immunoreactivity (%) [2]: 58.5% and 54.9% | Immunoreactivity (%) [3]: 56.7%

mAb J591 (murine) (antibody)
LD50, immunotoxin cytotoxicity (Mab-Zap saporin secondary) on C4-2 cells [4]: 88.2 pM | LD50, immunotoxin cytotoxicity (Mab-Zap saporin secondary) on PSMA-3T3 cells [4]: 89 pM
